Test results from PMC7262672.
Where two headings read alike, the source gives them in different places.

Columns and labels:
[1] = biological target: E. coli scaffold protein IscU (Escherichia coli) (UniProt P0ACD4); assay: non-reducing SDS-PAGE with densitometry
[2] = biological target: E. coli scaffold protein IscU (Escherichia coli) (UniProt P0ACD4); assay: native MS
[3] = biological target: E. coli cysteine desulfurase IscS (Escherichia coli) (UniProt P0A6B7); assay: native MS
[4] = biological target: E. coli scaffold protein IscU (Escherichia coli) (UniProt P0ACD4); assay: native MS; remark: listed apart in the source

Chain of UniProt P0A6B7 (P0A6B7 whole entry): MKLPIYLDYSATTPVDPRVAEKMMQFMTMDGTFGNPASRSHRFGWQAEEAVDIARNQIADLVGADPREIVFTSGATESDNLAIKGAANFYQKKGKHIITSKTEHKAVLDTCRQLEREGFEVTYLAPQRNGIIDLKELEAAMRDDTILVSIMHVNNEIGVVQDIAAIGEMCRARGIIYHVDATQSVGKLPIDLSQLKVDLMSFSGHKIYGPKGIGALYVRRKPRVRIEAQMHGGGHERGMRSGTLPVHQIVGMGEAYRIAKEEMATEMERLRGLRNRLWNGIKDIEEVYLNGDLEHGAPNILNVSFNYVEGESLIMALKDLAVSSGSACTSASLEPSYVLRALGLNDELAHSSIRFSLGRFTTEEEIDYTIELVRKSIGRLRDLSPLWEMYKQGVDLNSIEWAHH

Q: Which percent dimer [1] does the source give for “E. coli scaffold protein IscU (from UniProt P0ACD4 1-128) (natural protein)” here?
A: The percent dimer was 65%.

Q: And the percent dimer (of the monomer-to-dimer ratio) [2]?
A: The percent dimer (of the monomer-to-dimer ratio) was 14%.

Q: And the fraction of IscS2 lacking IscU [3]?
A: The fraction of IscS2 lacking IscU was 11%.

Q: What about the fraction of the IscU2–IscS2 complex [3] of the same substance?
A: Its fraction of the IscU2–IscS2 complex is 94%.

Q: What about the fraction of the IscU2–IscS2 species [3] of the same substance?
A: The fraction of the IscU2–IscS2 species was 86%.

Q: And the fraction of the IscU-IscS2 complex [3]?
A: The fraction of the IscU-IscS2 complex was 47%.

Q: And the fraction of the IscU-IscS2 species [3]?
A: The fraction of the IscU-IscS2 species was 6%.

Q: What about the stoichiometry N (IscU per IscS dimer) [3] of the same substance?
A: The stoichiometry N (IscU per IscS dimer) was 2.

Q: And the percent dimer [4]?
A: Its percent dimer is 59%.

Q: What about the percent dimer (of the monomer-to-dimer ratio) [4] of the same substance?
A: Its percent dimer (of the monomer-to-dimer ratio) is 22%.

Q: And the stoichiometry N [4]?
A: Its stoichiometry N is 2.
